Data as given in patent US20120190834A1.

Tests used:
[1] = biological target: TFPI (source not stated; Examples 8, 12 and 45), P10646
[2] = biological target: recombinant human TFPI purified from a cell line from Novo Nordisk

TFPI (source not stated; Examples 8, 12 and 45), P10646, sequence (P10646 whole entry, looked up): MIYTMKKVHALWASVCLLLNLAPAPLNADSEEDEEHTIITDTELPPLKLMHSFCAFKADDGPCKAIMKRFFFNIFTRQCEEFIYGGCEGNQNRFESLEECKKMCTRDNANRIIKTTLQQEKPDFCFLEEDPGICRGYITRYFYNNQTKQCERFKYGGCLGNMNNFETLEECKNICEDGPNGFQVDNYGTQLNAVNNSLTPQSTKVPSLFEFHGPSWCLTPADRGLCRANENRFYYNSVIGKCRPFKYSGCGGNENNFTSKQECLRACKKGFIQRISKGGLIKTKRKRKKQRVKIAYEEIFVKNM

B1: tissue factor:Factor VIIa complex (sources not stated; Examples 8 and 12) (protein)
chain 1: SGTTNTVAAYNLTWKSTNFKTILEWEPKPVNQVYTVQISTKSGDWKSKCFYTTDTECDLTDEIVKDVKQTYLARVFSYPAGNVESTGSAGEPLYENSPEFTPYLETNLGQPTIQSFEQVGTKVNVTVEDERTLVRRNNTFLSLRDVFGKDLIYTLYYWKSSSSGKKTAKTNTNEFLIDVDKGENYCFSVQAVIPSRTVNRKSTDSPVECMGQEKGEFREIFYIIGAVVFVVIILVIILAISLHKCRKAGVGQSWKENSPLNVS
chain 2: ANAFLEELRPGSLERECKEEQCSFEEAREIFKDAERTKLFWISYSDGDQCASSPCQNGGSCKDQLQSYICFCLPAFEGRNCETHKDDQLICVNENGGCEQYCSDHTGTKRSCRCHEGYSLLADGVSCTPTVEYPCGKIPILEKRNASKPQGR
chain 3: IVGGKVCPKGECPWQVLLLVNGAQLCGGTLINTIWVVSAAHCFDKIKNWRNLIAVLGEHDLSEHDGDEQSRRVAQVIIPSTYVPGTTNHDIALLRLHQPVVLTDHVVPLCLPERTFSERTLAFVRFSLVSGWGQLLDRGATALELMVLNVPRLMTQDCLQQSRKVGDSPNITEYMFCAGYSDGSKDSCKGDSGGPHATHYRGTWYLTGIVSWGQGCATVGHFGVYTRVSQYIEWLQKLMRSEPRPGVLLRAPFP
TF:FVIIa activity, hydrolysis of fluorogenic substrate SN-17c; 8 nM TFPI [1]: TFPI inhibited approximately 50% of TF:FVIIa activity under these conditions | rate of FXa generation in the extrinsic tenase (Xase) assay (chromogenic FXa substrate, A405), normalised at 4 minutes; 1 nM TFPI [1]: TFPI reduced the rate of FXa generation at 4 minutes by nearly 70%

B2: extrinsic Xase complex: re-lipidated recombinant human tissue factor (Innovin) and factor VIIa (Enzyme Research Laboratories) (protein)
chain 1: SGTTNTVAAYNLTWKSTNFKTILEWEPKPVNQVYTVQISTKSGDWKSKCFYTTDTECDLTDEIVKDVKQTYLARVFSYPAGNVESTGSAGEPLYENSPEFTPYLETNLGQPTIQSFEQVGTKVNVTVEDERTLVRRNNTFLSLRDVFGKDLIYTLYYWKSSSSGKKTAKTNTNEFLIDVDKGENYCFSVQAVIPSRTVNRKSTDSPVECMGQEKGEFREIFYIIGAVVFVVIILVIILAISLHKCRKAGVGQSWKENSPLNVS
chain 2: ANAFLEELRPGSLERECKEEQCSFEEAREIFKDAERTKLFWISYSDGDQCASSPCQNGGSCKDQLQSYICFCLPAFEGRNCETHKDDQLICVNENGGCEQYCSDHTGTKRSCRCHEGYSLLADGVSCTPTVEYPCGKIPILEKRNASKPQGR
chain 3: IVGGKVCPKGECPWQVLLLVNGAQLCGGTLINTIWVVSAAHCFDKIKNWRNLIAVLGEHDLSEHDGDEQSRRVAQVIIPSTYVPGTTNHDIALLRLHQPVVLTDHVVPLCLPERTFSERTLAFVRFSLVSGWGQLLDRGATALELMVLNVPRLMTQDCLQQSRKVGDSPNITEYMFCAGYSDGSKDSCKGDSGGPHATHYRGTWYLTGIVSWGQGCATVGHFGVYTRVSQYIEWLQKLMRSEPRPGVLLRAPFP
FXa generation by the extrinsic Xase (chromogenic FXa substrate); 2 nM TFPI [2]: curve #6 shows that TFPI shuts down Xa generation in the absence of ARC19499

B3: Factor Xa (source not stated; Example 45) (protein)
chain 1: ANSFLEEMKKGHLERECMEETCSYEEAREVFEDSDKTNEFWNKYKDGDQCETSPCQNQGKCKDGLGEYTCTCLEGFEGKNCELFTRKLCSLDNGDCDQFCHEEQNSVVCSCARGYTLADNGKACIPTGPYPCGKQTLER
chain 2: IVGGQECKDGECPWQALLINEENEGFCGGTILSEFYILTAAHCLYQAKRFKVRVGDRNTEQEEGGEAVHEVEVVIKHNRFTKETYDFDIAVLRLKTPITFRMNVAPACLPERDWAESTLMTQKTGIVSGFGRTHEKGRQSTRLKMLEVPYVDRNSCKLSSSFIITQNMFCAGYDTKQEDACQGDSGGPHVTRFKDTYFVTGIVSWGEGCARKGKYGIYTKVTAFLKWIDRSMKTRGLPKAKSHAPEVITSSPLK
FXa (1 nM) cleavage of chromogenic substrate S-2765, substrate added last [1]: In the presence of ≧8 nM TFPI, inhibition is nearly complete under these conditions and little product is formed

B4: prothrombinase complex: factor Xa (Enzyme Research Laboratories) and factor Va (Haematologic Technologies) on phospholipid membrane (protein)
chain 1: ANSFLEEMKKGHLERECMEETCSYEEAREVFEDSDKTNEFWNKYKDGDQCETSPCQNQGKCKDGLGEYTCTCLEGFEGKNCELFTRKLCSLDNGDCDQFCHEEQNSVVCSCARGYTLADNGKACIPTGPYPCGKQTLER
chain 2: IVGGQECKDGECPWQALLINEENEGFCGGTILSEFYILTAAHCLYQAKRFKVRVGDRNTEQEEGGEAVHEVEVVIKHNRFTKETYDFDIAVLRLKTPITFRMNVAPACLPERDWAESTLMTQKTGIVSGFGRTHEKGRQSTRLKMLEVPYVDRNSCKLSSSFIITQNMFCAGYDTKQEDACQGDSGGPHVTRFKDTYFVTGIVSWGEGCARKGKYGIYTKVTAFLKWIDRSMKTRGLPKAKSHAPEVITSSPLK
chain 3: AQLRQFYVAAQGISWSYRPEPTNSSLNLSVTSFKKIVYREYEPYFKKEKPQSTISGLLGPTLYAEVGDIIKVHFKNKADKPLSIHPQGIRYSKLSEGASYLDHTFPAEKMDDAVAPGREYTYEWSISEDSGPTHDDPPCLTHIYYSHENLIEDFNSGLIGPLLICKKGTLTEGGTQKTFDKQIVLLFAVFDESKSWSQSSSLMYTVNGYVNGTMPDITVCAHDHISWHLLGMSSGPELFSIHFNGQVLEQNHHKVSAITLVSATSTTANMTVGPEGKWIISSLTPKHLQAGMQAYIDIKNCPKKTRNLKKITREQRRHMKRWEYFIAAEEVIWDYAPVIPANMDKKYRSQHLDNFSNQIGKHYKKVMYTQYEDESFTKHTVNPNMKEDGILGPIIRAQVRDTLKIVFKNMASRPYSIYPHGVTFSPYEDEVNSSFTSGRNNTMIRAVQPGETYTYKWNILEFDEPTENDAQCLTRPYYSDVDIMRDIASGLIGLLLICKSRSLDRRGIQRAADIEQQAVFAVFDENKSWYLEDNINKFCENPDEVKRDDPKFYESNIMSTINGYVPESITTLGFCFDDTVQWHFCSVGTQNEILTIHFTGHSFIYGKRHEDTLTLFPMRGESVTVTMDNVGTWMLTSMNSSPRSKKLRLKFRDVKCIPDDDEDSYEIFEPPESTVMATRKMHDRLEPEDEESDADYDYQNRLAAALGIR
chain 4: SNNGNRRNYYIAAEEISWDYSEFVQRETDIEDSDDIPEDTTYKKVVFRKYLDSTFTKRDPRGEYEEHLGILGPIIRAEVDDVIQVRFKNLASRPYSLHAHGLSYEKSSEGKTYEDDSPEWFKEDNAVQPNSSYTYVWHATERSGPESPGSACRAWAYYSAVNPEKDIHSGLIGPLLICQKGILHKDSNMPMDMREFVLLFMTFDEKKSWYYEKKSRSSWRLTSSEMKKSHEFHAINGMIYSLPGLKMYEQEWVRLHLLNIGGSQDIHVVHFHGQTLLENGNKQHQLGVWPLLPGSFKTLEMKASKPGWWLLNTEVGENQRAGMQTPFLIMDRDCRMPMGLSTGIISDSQIKASEFLGYWEPRLARLNNGGSYNAWSVEKLAAEFASKPWIQVDMQKEVIITGIQTQGAKHYLKSCYTTEFYVAYSSNQINWQIFKGNSTRNVMYFNGNSDASTIKENQFDPPIVARYIRISPTRAYNRPTLRLELQGCEVNGCSTPLGMENGKIENKQITASSFKKSWWGDYWEPFRARLNAQGRVNAWQAKANNNKQWLEIDLLKIKKITAIITQGCKSLSSEMYVKSYTIHYSEQGVEWKPYRLKSSMVDKIFEGNTNTKGHVKNFFNPPIISRFIRVIPKTWNQSIALRLELFGCDIY
prothrombinase activity (thrombin generation from prothrombin, chromogenic thrombin substrate); 1 nM TFPI (fraction of activity) [2]: 0.33

B5: Factor Xa (Enzyme Research Laboratories) (protein)
chain 1: ANSFLEEMKKGHLERECMEETCSYEEAREVFEDSDKTNEFWNKYKDGDQCETSPCQNQGKCKDGLGEYTCTCLEGFEGKNCELFTRKLCSLDNGDCDQFCHEEQNSVVCSCARGYTLADNGKACIPTGPYPCGKQTLER
chain 2: IVGGQECKDGECPWQALLINEENEGFCGGTILSEFYILTAAHCLYQAKRFKVRVGDRNTEQEEGGEAVHEVEVVIKHNRFTKETYDFDIAVLRLKTPITFRMNVAPACLPERDWAESTLMTQKTGIVSGFGRTHEKGRQSTRLKMLEVPYVDRNSCKLSSSFIITQNMFCAGYDTKQEDACQGDSGGPHVTRFKDTYFVTGIVSWGEGCARKGKYGIYTKVTAFLKWIDRSMKTRGLPKAKSHAPEVITSSPLK
FXa (0.2 nM) cleavage of chromogenic substrate Pefachrome FXa 5523; 2 nM TFPI [2]: When TFPI and the chromogenic substrate were added to FXa at the same time, the rate of substrate cleavage decreased gradually as FXa was inhibited by TFPI
